This is an account of results in PMC4801485 (Biochemistry, 2015).

The target of experiment [1] is T1, CypA (Homo sapiens, UniProt P62937). Kind of experiment: 15N TROSY CPMG-RD of ligand-saturated CypA. The experiment is classed as biochemical.
Experiment [2] concerns the target T1, CypA. The conditions noted are these: percent weaker than GSFGPDLRAGD; cited from earlier work.
Experiment [3] addresses T1, CypA. The conditions noted are these: cited from earlier work.
The mark [4] stands for this setting: 2H,15N CypA, saturating TA-peptide (6 mM), 10 °C.

“Also recorded” adds a separate entry of the source. Where no end group is shown, it is not given here.

T1 sequence (P62937 whole entry): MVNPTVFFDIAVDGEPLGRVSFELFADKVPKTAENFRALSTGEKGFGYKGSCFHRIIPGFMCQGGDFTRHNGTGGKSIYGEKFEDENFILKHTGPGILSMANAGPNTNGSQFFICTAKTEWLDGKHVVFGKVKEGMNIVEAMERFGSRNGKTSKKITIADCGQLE

With “cyclosporine A [CsA, reference compound]”, in experiment [1] (2H,15N CypA (0.5 mM), CsA 0.7 mM, 10 °C), the “exchange throughout most of the active site (CsA)” value is on record as “quenched by CsA throughout most of the active site; also recorded: completely quenched”.
As for “TA-peptide: substrate for which the G-P peptide bond in the peptide is replaced by a thioamide bond (GSFGPDLRAGD; also: G-P peptide bond replaced by thioamide bond)”, in experiment [1] (setting [4]), the “chemical exchange rate throughout most of the active site” value is on record as ~ 300 s^−1; the “rate of motions, loop residues ~65–78 and ~108–110” value is reported as ~ 2000 s^−1. Besides, the “active site dynamics as compared to CypA:peptide complex” value in experiment [1] (2H,15N CypA, saturating TA-peptide, much of the active site) is recorded as “slowed dramatically”. Further, in experiment [2], the “binding relative to the standard GSFGPDLRAGD peptide (weaker)” value is ~ 50%. In addition, in experiment [3], the “isomerization by CypA” value is “not isomerized by CypA”.
